Where a SMILES comes first, the peptide text is derived from it.
Each molecule was assayed against Angiotensin-I converting enzyme (UniProt P12821) (assay: not given). Settings: not given.
Chain of Angiotensin-I converting enzyme (P12821 30-1256): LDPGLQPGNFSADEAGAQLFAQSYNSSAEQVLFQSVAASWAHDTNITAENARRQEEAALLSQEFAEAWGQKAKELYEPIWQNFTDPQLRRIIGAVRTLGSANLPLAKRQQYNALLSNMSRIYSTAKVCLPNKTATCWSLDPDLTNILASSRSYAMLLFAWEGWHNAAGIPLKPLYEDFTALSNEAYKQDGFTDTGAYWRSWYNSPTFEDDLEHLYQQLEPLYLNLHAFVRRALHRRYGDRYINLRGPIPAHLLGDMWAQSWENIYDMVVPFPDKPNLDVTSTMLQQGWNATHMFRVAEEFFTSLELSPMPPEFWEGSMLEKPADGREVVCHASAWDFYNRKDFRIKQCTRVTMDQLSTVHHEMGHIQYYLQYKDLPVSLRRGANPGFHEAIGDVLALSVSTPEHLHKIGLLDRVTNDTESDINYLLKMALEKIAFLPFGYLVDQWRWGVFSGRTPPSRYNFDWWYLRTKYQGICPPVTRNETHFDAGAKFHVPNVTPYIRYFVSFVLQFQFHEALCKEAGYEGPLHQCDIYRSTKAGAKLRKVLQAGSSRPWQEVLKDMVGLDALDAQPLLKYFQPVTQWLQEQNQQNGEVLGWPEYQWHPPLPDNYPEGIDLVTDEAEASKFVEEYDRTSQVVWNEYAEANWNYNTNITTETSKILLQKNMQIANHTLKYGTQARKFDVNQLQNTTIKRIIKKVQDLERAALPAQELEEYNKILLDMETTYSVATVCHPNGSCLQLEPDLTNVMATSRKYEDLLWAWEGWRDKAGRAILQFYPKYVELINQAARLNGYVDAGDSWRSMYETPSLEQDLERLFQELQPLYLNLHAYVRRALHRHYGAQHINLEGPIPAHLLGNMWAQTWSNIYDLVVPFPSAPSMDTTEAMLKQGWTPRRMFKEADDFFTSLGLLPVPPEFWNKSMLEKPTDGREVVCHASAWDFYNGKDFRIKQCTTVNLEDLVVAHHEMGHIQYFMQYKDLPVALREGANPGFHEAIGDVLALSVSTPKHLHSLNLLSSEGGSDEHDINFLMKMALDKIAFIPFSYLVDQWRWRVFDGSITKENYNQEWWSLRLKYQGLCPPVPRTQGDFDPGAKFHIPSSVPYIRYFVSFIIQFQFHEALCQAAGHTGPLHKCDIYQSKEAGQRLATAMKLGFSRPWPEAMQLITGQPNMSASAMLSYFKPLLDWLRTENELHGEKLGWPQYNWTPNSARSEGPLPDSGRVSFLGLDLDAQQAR
In the case of LDW (peptide), the ACE inhibitory activity IC50 (ACE kit-WST, colorimetric enzyme activity assay) is reported as over 1000 µg/mL.
In the case of VAR (peptide), the ACE inhibitory activity IC50 (ACE kit-WST, colorimetric enzyme activity assay) is reported as 104 µg/mL.
Work on LGEW yielded an ACE inhibitory activity IC50 (ACE kit-WST, colorimetric enzyme activity assay) of 165 µg/mL.
For VTPGLQY, the ACE inhibitory activity IC50 (ACE kit-WST, colorimetric enzyme activity assay) was 23 µg/mL.
In the case of NLGEW, the ACE inhibitory activity IC50 (ACE kit-WST, colorimetric enzyme activity assay) is reported as 146 µg/mL.
NYER showed an ACE inhibitory activity IC50 (ACE kit-WST, colorimetric enzyme activity assay) of 107 µg/mL.
Work on QLQFPVGR yielded an ACE inhibitory activity IC50 (ACE kit-WST, colorimetric enzyme activity assay) of 4 µg/mL.
Molecule QFPVGR has an ACE inhibitory activity IC50 (ACE kit-WST, colorimetric enzyme activity assay) of 23 µg/mL.
In the case of LGPY, the ACE inhibitory activity IC50 (ACE kit-WST, colorimetric enzyme activity assay) is reported as over 1000 µg/mL.

The molecules below were run against T1, Angiotensin-I converting enzyme (ACE) (Homo sapiens, UniProt P12821) (assay: ACE inhibition activity assay (ACE kit-WST, colorimetric)). Settings: 3-hydroxybutyryl-Gly-Gly-Gly substrate, mean ± SD of triplicate, read-out: ACE Inhibitory Activity IC50 Value (converted).
T1 construct: purchased Dojindo Inc., Kumamoto, Japan ACE kit-WST
T1 sequence (P12821 30-1306, species assumed): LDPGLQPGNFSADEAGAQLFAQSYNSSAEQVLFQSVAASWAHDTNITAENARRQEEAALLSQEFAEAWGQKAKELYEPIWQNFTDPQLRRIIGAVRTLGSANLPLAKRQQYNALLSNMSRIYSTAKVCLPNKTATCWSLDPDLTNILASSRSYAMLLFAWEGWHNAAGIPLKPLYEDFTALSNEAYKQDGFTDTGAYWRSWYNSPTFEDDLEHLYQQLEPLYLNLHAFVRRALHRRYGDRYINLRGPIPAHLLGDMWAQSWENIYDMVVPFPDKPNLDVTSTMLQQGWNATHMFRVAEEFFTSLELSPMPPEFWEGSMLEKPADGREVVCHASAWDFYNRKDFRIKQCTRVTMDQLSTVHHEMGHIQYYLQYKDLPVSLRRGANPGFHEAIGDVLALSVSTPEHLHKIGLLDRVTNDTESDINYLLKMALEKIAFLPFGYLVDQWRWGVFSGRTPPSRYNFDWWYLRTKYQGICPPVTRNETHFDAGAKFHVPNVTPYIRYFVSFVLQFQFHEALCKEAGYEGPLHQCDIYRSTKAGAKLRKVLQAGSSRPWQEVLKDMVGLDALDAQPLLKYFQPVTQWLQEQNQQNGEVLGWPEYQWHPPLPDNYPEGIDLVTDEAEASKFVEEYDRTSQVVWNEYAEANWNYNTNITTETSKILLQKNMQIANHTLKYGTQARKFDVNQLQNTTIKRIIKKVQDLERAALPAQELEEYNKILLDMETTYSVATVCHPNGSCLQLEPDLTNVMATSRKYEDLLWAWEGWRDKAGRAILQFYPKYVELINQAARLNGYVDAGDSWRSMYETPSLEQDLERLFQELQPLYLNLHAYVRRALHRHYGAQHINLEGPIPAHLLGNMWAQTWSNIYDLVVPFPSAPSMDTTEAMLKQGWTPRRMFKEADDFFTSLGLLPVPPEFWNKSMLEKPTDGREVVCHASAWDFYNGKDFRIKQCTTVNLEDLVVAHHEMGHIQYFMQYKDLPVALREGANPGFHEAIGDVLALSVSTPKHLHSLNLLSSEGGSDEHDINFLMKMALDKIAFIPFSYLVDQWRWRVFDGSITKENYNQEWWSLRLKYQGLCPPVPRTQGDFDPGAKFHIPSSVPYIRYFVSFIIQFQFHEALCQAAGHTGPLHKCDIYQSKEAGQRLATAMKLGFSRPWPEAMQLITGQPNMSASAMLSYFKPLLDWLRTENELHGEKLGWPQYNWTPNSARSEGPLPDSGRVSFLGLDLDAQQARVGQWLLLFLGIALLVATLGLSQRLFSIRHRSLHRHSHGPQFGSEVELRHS
Format: biochemical
Procedure: ACE inhibitory activity was determined as previously described. Inhibition was measured using an ACE kit-WST (Dojindo Inc., Kumamoto, Japan), a colorimetric method. Briefly, the inhibitory effect was determined using enzyme activity and the amount of 3-hydroxybutyric acid made from 3-hydroxybutyryl-Gly-Gly-Gly.
`CC(C)C[C@H](N)C(=O)NCC(=O)N1CCC[C@H]1C(=O)N[C@@H](Cc1ccc(O)cc1)C(=O)O` [LGPY] (H-LGPY-OH) showed an IC50 of over 2230 µM.
Work on `CC(C)C[C@H](NC(=O)[C@@H](N)CCC(N)=O)C(=O)N[C@@H](CCC(N)=O)C(=O)N[C@@H](Cc1ccccc1)C(=O)N1CCC[C@H]1C(=O)N[C@H](C(=O)NCC(=O)N[C@@H](CCCNC(=N)N)C(=O)O)C(C)C` [QLQFPVGR] (H-QLQFPVGR-OH) yielded an IC50 of 4.24 µM.
Work on `N=C(N)NCCC[C@H](NC(=O)[C@H](CCC(=O)O)NC(=O)[C@H](Cc1ccc(O)cc1)NC(=O)[C@@H](N)CC(N)=O)C(=O)O` [NYER] (H-NYER-OH) yielded an IC50 of 184 µM.
`CC(C)[C@H](N)C(=O)N[C@@H](C)C(=O)N[C@@H](CCCNC(=N)N)C(=O)O` [VAR] (H-Val-Ala-Arg-OH) gave an IC50 of 302 µM.
Work on `CC(C)C[C@H](N)C(=O)NCC(=O)N[C@@H](CCC(=O)O)C(=O)N[C@@H](Cc1c[nH]c2ccccc12)C(=O)O` [LGEW] (H-LGEW-OH) yielded an IC50 of 328 µM.
With `CC(C)C[C@H](NC(=O)[C@@H](N)CC(N)=O)C(=O)NCC(=O)N[C@@H](CCC(=O)O)C(=O)N[C@@H](Cc1c[nH]c2ccccc12)C(=O)O` [NLGEW] (H-NLGEW-OH) the IC50 was 236 µM.
In the case of `CC(C)C[C@H](NC(=O)CNC(=O)[C@@H]1CCCN1C(=O)[C@@H](NC(=O)[C@@H](N)C(C)C)[C@@H](C)O)C(=O)N[C@@H](CCC(N)=O)C(=O)N[C@@H](Cc1ccc(O)cc1)C(=O)O` [VTPGLQY] (H-VTPGLQY-OH), the IC50 is reported as 29.6 µM.
For `CC(C)C[C@H](N)C(=O)N[C@@H](CC(=O)O)C(=O)N[C@@H](Cc1c[nH]c2ccccc12)C(=O)O` [LDW] (H-Leu-Asp-Trp-OH), the IC50 was over 2310 µM.
